Assay [1] has as its target T1, human CD3 (TCR/CD3 complex on the cell surface) (human, UniProt P07766 23-207; P04234 22-171; P09693 23-182).
T1 construct: whole, on cells; Native CD3 on human Pan-T cells or Jurkat wild-type cells; also called CD3 on Pan-T cells; CD3 on Jurkat WT cells
The assay is described as follows: flow cytometry, Jurkat WT gMFI over Jurkat KO gMFI, 1 ug/mL.

For assay [2], the target named is T1, human CD3 (TCR/CD3 complex on the cell …). The assay is described as follows: flow cytometry, Pan-T cells, 10 ug/mL. (In general: Flow cytometry measures light scatter and fluorescence of single cells or particles in a stream.)
Assay [3] has the same target. The assay is described as follows: flow cytometry, Pan-T cells, 1 ug/mL.
Assay [4] has the same target. In words: flow cytometry, Jurkat WT gMFI over Jurkat KO gMFI, 10 ug/mL.
The target is the same in assay [5]. The assay is described as follows: flow cytometry, Jurkat WT cells, 1 ug/mL.
Assay [6] shares this target. In words: flow cytometry, Jurkat WT cells, 10 ug/mL.

T1 sequence (P07766 23-207, chain 1 of 3): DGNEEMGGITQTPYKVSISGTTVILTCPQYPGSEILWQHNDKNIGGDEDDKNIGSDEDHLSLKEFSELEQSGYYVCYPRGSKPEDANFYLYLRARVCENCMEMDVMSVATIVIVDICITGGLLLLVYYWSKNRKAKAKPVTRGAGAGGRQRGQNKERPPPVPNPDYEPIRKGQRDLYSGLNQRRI
T1 sequence (P04234 22-171, chain 2 of 3): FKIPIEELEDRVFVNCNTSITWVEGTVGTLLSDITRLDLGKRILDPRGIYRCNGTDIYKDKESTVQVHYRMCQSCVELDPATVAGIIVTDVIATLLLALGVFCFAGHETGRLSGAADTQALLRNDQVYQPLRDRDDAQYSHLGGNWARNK
T1 sequence (P09693 23-182, chain 3 of 3): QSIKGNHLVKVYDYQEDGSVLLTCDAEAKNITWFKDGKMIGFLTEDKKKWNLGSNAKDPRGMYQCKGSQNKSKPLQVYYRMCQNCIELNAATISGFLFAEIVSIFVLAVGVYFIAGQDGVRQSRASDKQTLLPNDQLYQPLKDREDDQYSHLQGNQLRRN

B1: CD3 × CD33-BspAb101 (bispecific antibody)
scFv-Fc: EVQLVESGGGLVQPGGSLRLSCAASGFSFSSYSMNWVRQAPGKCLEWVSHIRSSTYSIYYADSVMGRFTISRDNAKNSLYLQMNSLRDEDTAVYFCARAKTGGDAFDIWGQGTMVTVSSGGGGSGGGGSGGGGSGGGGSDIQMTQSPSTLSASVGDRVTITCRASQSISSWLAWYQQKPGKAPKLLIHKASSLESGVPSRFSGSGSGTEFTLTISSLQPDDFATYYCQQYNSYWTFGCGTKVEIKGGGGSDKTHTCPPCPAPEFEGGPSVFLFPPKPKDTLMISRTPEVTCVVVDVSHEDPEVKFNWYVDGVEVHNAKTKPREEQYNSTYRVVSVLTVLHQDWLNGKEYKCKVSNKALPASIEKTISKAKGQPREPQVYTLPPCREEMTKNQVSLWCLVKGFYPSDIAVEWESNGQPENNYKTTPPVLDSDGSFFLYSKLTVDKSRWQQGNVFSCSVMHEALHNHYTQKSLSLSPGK
heavy: EVQLVQSGAEVKKPGSSVKVSCKASGYTITDSNIHWVRQAPGQSLEWIGYIYPYNGGTDYNQKFKNRATLTVDNPTNTAYMELSSLRSEDTAFYYCVNGNPWLAYWGQGTLVTVSSASTKGPSVFPLAPSSKSTSGGTAALGCLVKDYFPEPVTVSWNSGALTSGVHTFPAVLQSSGLYSLSSVVTVPSSSLGTQTYICNVNHKPSNTKVDKRVEPKSCDKTHTCPPCPAPEFEGGPSVFLFPPKPKDTLMISRTPEVTCVVVDVSHEDPEVKFNWYVDGVEVHNAKTKPREEQYNSTYRVVSVLTVLHQDWLNGKEYKCKVSNKALPASIEKTISKAKGQPREPQVCTLPPSREEMTKNQVSLSCAVKGFYPSDIAVEWESNGQPENNYKTTPPVLDSDGSFFLVSKLTVDKSRWQQGNVFSCSVMHEALHNRFTQKSLSLSPGK
light: DIQLTQSPSTLSASVGDRVTITCRASESLDNYGIRFLTWFQQKPGKAPKLLMYAASNQGSGVPSRFSGSGSGTEFTLTISSLQPDDFATYYCQQTKEVPWSFGQGTKVEVKRTVAAPSVFIFPPSDEQLKSGTASVVCLLNNFYPREAKVQWKVDNALQSGNSQESVTEQDSKDSTYSLSSTLTLSKADYEKHKVYACEVTHQGLSSPVTKSFNRGEC
notes: KiH heterodimer
B1: the entries for the “Jurkat WT/KO (Fold)” value in assay [1] and in assay [4] were 0.8 fold and 0.9 fold, respectively. In addition, the “% Positive” value in assay [2] stood at 1.6%; in assay [3] it was 1.8%. Besides, the gMFI in assay [2] worked out at 2150 gMFI; in assay [3], 1910 gMFI; in assay [5], 1780 gMFI; in assay [6], 1940 gMFI.

B2: CD3 × CD33-BspAb113 (bispecific antibody)
scFv-Fc: NFMLTQPHSVSESPGKTVTISCTRSSGSIASNYVQWYQQRPGSSPTTVIYEDNQRPSGVPDRFSGSIDSSSNSASLTISGLKTEDEADYYCQSYDSSNRVFGCGTKLTVLGGGGSGGGGSGGGGSGGGGSEVQLVESGGGLVKFGGSLRLSCAASGFTFSRYSMNWVRQAPGKCLEWVSSISSSSSYKYYADSVKGRFTISRDNAKNSLYLQMNSLRAEDTAVYYCAREGGNSHGMDVWGQGTTVTVSSGGGGSDKTHTCPPCPAPEFEGGPSVFLFPPKPKDTLMISRTPEVTCVVVDVSHEDPEVKFNWYVDGVEVHNAKTKPREEQYNSTYRVVSVLTVLHQDWLNGKEYKCKVSNKALPASIEKTISKAKGQPREPQVYTLPPCREEMTKNQVSLWCLVKGFYPSDIAVEWESNGQPENNYKTTPPVLDSDGSFFLYSKLTVDKSRWQQGNVFSCSVMHEALHNHYTQKSLSLSPGK
heavy: EVQLVQSGAEVKKPGSSVKVSCKASGYTITDSNIHWVRQAPGQSLEWIGYIYPYNGGTDYNQKFKNRATLTVDNPTNTAYMELSSLRSEDTAFYYCVNGNPWLAYWGQGTLVTVSSASTKGPSVFPLAPSSKSTSGGTAALGCLVKDYFPEPVTVSWNSGALTSGVHTFPAVLQSSGLYSLSSVVTVPSSSLGTQTYICNVNHKPSNTKVDKRVEPKSCDKTHTCPPCPAPEFEGGPSVFLFPPKPKDTLMISRTPEVTCVVVDVSHEDPEVKFNWYVDGVEVHNAKTKPREEQYNSTYRVVSVLTVLHQDWLNGKEYKCKVSNKALPASIEKTISKAKGQPREPQVCTLPPSREEMTKNQVSLSCAVKGFYPSDIAVEWESNGQPENNYKTTPPVLDSDGSFFLVSKLTVDKSRWQQGNVFSCSVMHEALHNRFTQKSLSLSPGK
light: DIQLTQSPSTLSASVGDRVTITCRASESLDNYGIRFLTWFQQKPGKAPKLLMYAASNQGSGVPSRFSGSGSGTEFTLTISSLQPDDFATYYCQQTKEVPWSFGQGTKVEVKRTVAAPSVFIFPPSDEQLKSGTASVVCLLNNFYPREAKVQWKVDNALQSGNSQESVTEQDSKDSTYSLSSTLTLSKADYEKHKVYACEVTHQGLSSPVTKSFNRGEC
notes: KiH heterodimer
For B2, the “Jurkat WT/KO (Fold)” value in assay [1] came out at 3.9 fold; in assay [4] it was 5.9 fold. Further, the results for the “% Positive” value in assay [2] and in assay [3] were 99.5% and 96.2%, respectively. Besides, the gMFI in assay [2] turned out to be 111000 gMFI; in assay [3], 24900 gMFI; in assay [5], 10100 gMFI; in assay [6], 16000 gMFI.

B3: CD3 × CD33-BspAb104 (bispecific antibody)
scFv-Fc: QSALTQPASVSGSPGQSITISCTGTSSDVGSYNLVSWYQQHPGKAPKLMIYEDIRRPSGVSNRFSASKSGDTASLTISGLQAEDEADYYCSSYAGSTTFAIFGCGTKLTVLGGGGSGGGGSGGGGSGGGGSEVQLVQSGAEVKKPGESLKISCKGSEYSFTTYWIAWVRQMPGKCLEWMGIIYPGDSDTTYSPSFQGQVTISADKSISIAFLQWSSLKASDTAMYYCARQGELDAFDIWGQGTMVTVSSGGGGSDKTHTCPPCPAPEFEGGPSVFLFPPKPKDTLMISRTPEVTCVVVDVSHEDPEVKFNWYVDGVEVHNAKTKPREEQYNSTYRVVSVLTVLHQDWLNGKEYKCKVSNKALPASIEKTISKAKGQPREPQVYTLPPCREEMTKNQVSLWCLVKGFYPSDIAVEWESNGQPENNYKTTPPVLDSDGSFFLYSKLTVDKSRWQQGNVFSCSVMHEALHNHYTQKSLSLSPGK
heavy: EVQLVQSGAEVKKPGSSVKVSCKASGYTITDSNIHWVRQAPGQSLEWIGYIYPYNGGTDYNQKFKNRATLTVDNPTNTAYMELSSLRSEDTAFYYCVNGNPWLAYWGQGTLVTVSSASTKGPSVFPLAPSSKSTSGGTAALGCLVKDYFPEPVTVSWNSGALTSGVHTFPAVLQSSGLYSLSSVVTVPSSSLGTQTYICNVNHKPSNTKVDKRVEPKSCDKTHTCPPCPAPEFEGGPSVFLFPPKPKDTLMISRTPEVTCVVVDVSHEDPEVKFNWYVDGVEVHNAKTKPREEQYNSTYRVVSVLTVLHQDWLNGKEYKCKVSNKALPASIEKTISKAKGQPREPQVCTLPPSREEMTKNQVSLSCAVKGFYPSDIAVEWESNGQPENNYKTTPPVLDSDGSFFLVSKLTVDKSRWQQGNVFSCSVMHEALHNRFTQKSLSLSPGK
light: DIQLTQSPSTLSASVGDRVTITCRASESLDNYGIRFLTWFQQKPGKAPKLLMYAASNQGSGVPSRFSGSGSGTEFTLTISSLQPDDFATYYCQQTKEVPWSFGQGTKVEVKRTVAAPSVFIFPPSDEQLKSGTASVVCLLNNFYPREAKVQWKVDNALQSGNSQESVTEQDSKDSTYSLSSTLTLSKADYEKHKVYACEVTHQGLSSPVTKSFNRGEC
notes: KiH heterodimer
On to B3, for which the results for the “Jurkat WT/KO (Fold)” value in assay [1] and in assay [4] were 0.8 fold and 1 fold, respectively. Also, the “% Positive” value in assay [2] was determined as 1.6%; in assay [3], 1.2%. In addition, the gMFI in assay [2] was 2090 gMFI; in assay [3], 2020 gMFI; in assay [5] it was 1700 gMFI; in assay [6], 1790 gMFI.

B4: CD3 × CD33-BspAb119 (bispecific antibody)
scFv-Fc: NFMLTQPHSVSESPGKTVTISCTRSSGSIASNYVQWYQQRPGSSPTTVIYEDNQRPSGVPDRFSGSIDSSSNSASLTISGLKTEDEADYYCQSYDSSNRVFGCGTKLTVLGGGGSGGGGSGGGGSGGGGSEVQVAESGGGLVKPGGSLRLSCAASGFTFSRYSMNWVRQAPGKCLEWVSSISSSGSYTYYADSVKGRFTISRDNAKNSLYLQMNSLRAEDTAVYYCVRERGKGAGMDVWGQGTTVTVSSGGGGSDKTHTCPPCPAPEFEGGPSVFLFPPKPKDTLMISRTPEVTCVVVDVSHEDPEVKFNWYVDGVEVHNAKTKPREEQYNSTYRVVSVLTVLHQDWLNGKEYKCKVSNKALPASIEKTISKAKGQPREPQVYTLPPCREEMTKNQVSLWCLVKGFYPSDIAVEWESNGQPENNYKTTPPVLDSDGSFFLYSKLTVDKSRWQQGNVFSCSVMHEALHNHYTQKSLSLSPGK
heavy: EVQLVQSGAEVKKPGSSVKVSCKASGYTITDSNIHWVRQAPGQSLEWIGYIYPYNGGTDYNQKFKNRATLTVDNPTNTAYMELSSLRSEDTAFYYCVNGNPWLAYWGQGTLVTVSSASTKGPSVFPLAPSSKSTSGGTAALGCLVKDYFPEPVTVSWNSGALTSGVHTFPAVLQSSGLYSLSSVVTVPSSSLGTQTYICNVNHKPSNTKVDKRVEPKSCDKTHTCPPCPAPEFEGGPSVFLFPPKPKDTLMISRTPEVTCVVVDVSHEDPEVKFNWYVDGVEVHNAKTKPREEQYNSTYRVVSVLTVLHQDWLNGKEYKCKVSNKALPASIEKTISKAKGQPREPQVCTLPPSREEMTKNQVSLSCAVKGFYPSDIAVEWESNGQPENNYKTTPPVLDSDGSFFLVSKLTVDKSRWQQGNVFSCSVMHEALHNRFTQKSLSLSPGK
light: DIQLTQSPSTLSASVGDRVTITCRASESLDNYGIRFLTWFQQKPGKAPKLLMYAASNQGSGVPSRFSGSGSGTEFTLTISSLQPDDFATYYCQQTKEVPWSFGQGTKVEVKRTVAAPSVFIFPPSDEQLKSGTASVVCLLNNFYPREAKVQWKVDNALQSGNSQESVTEQDSKDSTYSLSSTLTLSKADYEKHKVYACEVTHQGLSSPVTKSFNRGEC
notes: KiH heterodimer
Regarding B4, the “Jurkat WT/KO (Fold)” value in assay [1] amounted to 7.8 fold; in assay [4] it was 9 fold. Moreover, the results for the “% Positive” value in assay [2] and in assay [3] were 99.7% and 99.8%, respectively. Moreover, the gMFI in assay [2] came out at 166000 gMFI; in assay [3], 88200 gMFI; in assay [5] it was 22400 gMFI; in assay [6], 25700 gMFI.

The values above are taken from patent US20260167721A1 (ABLEXIS, published 2026).
